{"source": "patent US20210275498A1", "about": "“IMIDAZOLYL ETHANAMIDE PENTANDIOIC ACID FOR USE IN THERAPY OF SYMPTOMS RELATED TO EXPOSURE TO LETHAL RADIATION” (priority 2018, published 2021)", "molecules": {"B1": {"name": "G-CSF: Neupogen (Filgrastim; Granulocyte colony-stimulating factor; G-CSF), positive control article, Amgen (protein, UniProt P09919 31-207, looked up)", "Granulocyte …": "TPLGPASSLPQSFLLKCLEQVRKIQGDGAALQEKLVSECATYKLCHPEELVLLGHSLGIPWAPLSSCPSQALQLAGCLSQLHSGLFLYQGLLQALEGISPELGPTLDTLQLDVADFATTIWQQMEELGMAPALQPTQGAMPAFASAFQRRAGGVLVASHLQSFLEVSYRVLRHLAQP", "modifications": "filgrastim", "notes": "Neupogen (Filgrastim; Granulocyte colony-stimulating factor; G-CSF), positive control article, Amgen"}}, "assay_type_in_all_cases": "in vivo", "key": {"C57BL/6 mice [1]": {"test_system": "C57BL/6 mice", "assay": "Gross pathology and histopathology (testes degeneration, bone marrow cellularity) after whole-body irradiation", "conditions": "Day 14, insignificant (p=0.078); Group 6 GL (SCx1): 0.34 mg/kg SC SID Day 1, 2, 3, therapeutic, 5.8 Gy", "description": "(§1) FIG. 13 Testes. (A): Percentage of severity of testes degeneration according to four categories (minimal, mild, moderate and marked) in group 2 (VL (POx1); 2), group 3 (ML (IPx2); 3), group 4 (ML (POx2); 4) and group 5 (ML (POx1); 5). (B): Percentage of severity of testes degeneration according to four categories (minimal, mild, moderate and marked) in group 2 (VL (POx1);2), 6 (GL (SCx1); 6) and 7 (M/GL (PO/SCx1); 7). (C): Percentage of severity of testes degeneration according to four categories (minimal, mild, moderate and marked) in group 8 (VH (POx1); 8 and 9 (MH (POx1); 9).\nas §1, with “14 Bone marrow cellularity.” for “13 Testes.”, “bone marrow cellularity decrease” for “severity of testes degeneration”"}, "C57BL/6 mice [2]": {"test_system": "C57BL/6 mice", "assay": "Body weight after whole-body irradiation (response profile analysis)", "conditions": "Group 6 GL (SCx1): 0.34 mg/kg SC SID Day 1, 2, 3, therapeutic, 5.8 Gy", "protocol": "Body weights were assessed twice during acclimation (including Day −3), once prior to irradiation (Day 0), and every 3 days thereafter. Terminal body weights were also collected, with the exception of Animal 4012.\nThe longitudinal data were analyzed taking into account the mean weight over time in each group and the covariance among the repeated measures by response profile analysis (Fitzmaurice et al., Wiley 2004, p 103-140.). The analysis was specified as a regression model with unstructured covariance to account for the correlation among repeated body weights of the same mouse and indicator variables for treatment groups and time, where the vehicle treatment was used as the reference group and Day 0 was taken as a reference for time.\nThe response profile analyses provide the following regression coefficients estimated by the restricted maximum likelihood (REML) method: intercept—mean body weight in the reference groups VL (POx1);2 and VH (POx1);8 at Day 0 treatment—difference between the mean body weight in the treatment groups and the vehicle groups at Day 0 time—body weight change from baseline in the reference groups treatment×time—treatment effect at each day estimated by comparison of change from baseline in the treatment groups and control groups For all regression coefficients, p-values and 95%-confidence intervals are provided. This method provides interpretable estimates, is valid if treatment groups differ at baseline, allows for arbitrary patterns in the mean body weight over time (no specific time trend e. g. linear curve assumed) and arbitrary patterns in the covariance. The analysis has certain robustness, as potential risks due to model misspecification are minimal."}, "C57BL/6 mice [3]": {"test_system": "C57BL/6 mice", "assay": "Mortality / survival to Day 30 after whole-body irradiation (5.8 Gy or 6.0 Gy)", "conditions": "Group 6 GL (SCx1): 0.34 mg/kg SC SID Day 1, 2, 3, therapeutic, 5.8 Gy", "description": "Based on a previously reported study (Williams et al. 2010, Plett et al. 2012, Chua et al. 2014, Singh et al., 2015), the mouse model was developed to investigate LD25 and LD50. The whole-body irradiation and selected dose serve as a translational in vivo model mimicking possible radiation exposure to humans following a nuclear incident.\nAnimals (C57BL/6 mice) were supplied by Jackson Laboratories (Bar Harbor, Me. facility). Animals were maintained at SNBL USA (Everett, Wash. facility) as stock prior to study assignment and were screened for health by veterinary staff prior to use on study. 205 animals were assigned to treatment groups.\nOral application of Myelo001 would be conducive for nuclear or other radiation incidents and was chosen for this study. […] The human equivalent dose is estimated to be 4 mg/kg based on allometric calculations.\nBased on the ARS Scoring SNBL SOP, if the sum of the three parameter scores totaled 8 or higher, the animal was considered moribund and was euthanized with an unscheduled necropsy performed according to the moribund animal SOP.\nCageside mortality checks were conducted per SOP, twice daily after Day −3. Morning and afternoon checks began 2 to 3 hours after the completion of the respective ARS scorings. Individual assessments were only documented for apparently moribund animals by re-scoring, or for found dead animals by removal.\nSurvival data were summarized descriptively and graphically using the Kaplan-Meier method. Further, death rates were tabulated by treatment. The equality of two or more survivor curves was tested with log rank tests. In addition, Cox-regression models were used to estimate hazard ratios, p-values and 95% confidence intervals (95% CI).\nThe focus of the survival analysis is irradiation related death between irradiation on Day 0 and Day 30. Thus, the scheduled necropsies on Day 7 and Day 14 or deaths unrelated to radiation (Animals 2041, 9012 and 9021) were considered as censored events."}}, "data": [{"molecule": "B1", "values": [{"measurement": "testes degeneration, proportion by severity category", "setting": "C57BL/6 mice [1]", "result": "higher proportions of testes in the minimal category"}, {"measurement": "Body weight: Estimate, change relative to vehicle group 2", "setting": "C57BL/6 mice [2]; Day 0", "result": -0.5, "unit": "g"}, {"measurement": "Body weight: Estimate, change relative to vehicle group 2", "setting": "C57BL/6 mice [2]; Day 3", "result": 0.3, "unit": "g"}, {"measurement": "Body weight: Estimate, change relative to vehicle group 2", "setting": "C57BL/6 mice [2]; Day 9", "result": -0.4, "unit": "g"}, {"measurement": "Body weight: Estimate, change relative to vehicle group 2", "setting": "C57BL/6 mice [2]; Day 15", "result": 0.4, "unit": "g"}, {"measurement": "Body weight: Estimate, change relative to vehicle group 2", "setting": "C57BL/6 mice [2]; Day 21", "result": 3.3, "unit": "g"}, {"measurement": "Body weight: Estimate, change relative to vehicle group 2", "setting": "C57BL/6 mice [2]; Day 30", "result": 0.5, "unit": "g"}, {"measurement": "Dead (irradiation related deaths)", "setting": "C57BL/6 mice [3]", "result": 1}, {"measurement": "Irradiation related death rate, Rate (per 100 Days)", "setting": "C57BL/6 mice [3]", "result": 0.42, "unit": "per 100 Days"}, {"measurement": "Survival after 30 days (Kaplan-Meier estimate)", "setting": "C57BL/6 mice [3]", "result": 0.90}, {"measurement": "Time at Risk", "setting": "C57BL/6 mice [3]", "result": 237, "unit": "days"}, {"measurement": "Time to 10% death, Time", "setting": "C57BL/6 mice [3]", "result": 12, "unit": "days"}, {"measurement": "Hazard ratio (Cox regression, risk of radiation induced death)", "setting": "C57BL/6 mice [3]; reference group VL (POx1), 2", "result": 0.72}, {"measurement": "Quantity ratio of survival probability (dose reduction factor, DRF), day 30, relative to control group", "setting": "C57BL/6 mice [3]; vs VL (POx1), 2", "result": 1.1}]}]}
